Assay: soluble on expression in E. coli; label from the status in PepcDB or PDB records

Sequence	soluble on expression in E. coli
MGSDKIHHHHHHMSHKPSAEDKEKSKLTKEEWRDYTKTVWSIANTSHEDHPAVFPLEIPHRLTKLFSFYGETVLDPFAGTGTTARAAIPLGRRAICVDQNADYTEIIKKDCAKLRNGHGADFEPLVVVNGDSRKMDFVESDSVGLVVTSPPYWNKADYGDSKRNLGTIERYSDFIEGIRPVFEECYRILTPGRKLCVVTANVNQHTDHGLLTFPLATDFAVLLRQIGFVMINEIIWSKDATGGKWGSYGAQRPIFGSYPYPPNFLFKNVHEYILIFAKPPRTKTTGPKVQPYKKLVEGLTGGIMEPDSLPAYAQAFRQQ	not soluble
MGSDKIHHHHHHMSIFANLFKKQADADAKVVGNVEDFVSLTRVYFQSVIAVNLGITNIRFLPDVANFKRLFKVATQGGKLGLAEKSASRKMLMQDYGISESFFKEIDTSIKKNCRTQNDVQAYLFMYQGFSSDLMMLMGNLMQWKFRMPAIFKKALRSMTEKTVHDVCTKTVWKADDVHKTAAAVRQYKERLGFSEQWMSEYVYNIVLLAKKEPKHKDEEAKAK	not soluble
MGSDKIHHHHHHMSKIILVVAAHTDDEAMGCGGTIARHIAEGDEVHLLFMTDGVGSREVLAEEVIDRSSAAQQAAKILGVSSFTNLSFPDNRMDSVALLDIVKEVEVKISEIKPEIIYTHHIGDLNIDHQVTHKAVMTACRPQPGFSVKTIYAFEVLSSTEWQTSNSALFIPNVFIDITDYLPVKMDASKAYYNEMREVPHSRSLQHIELLARHRGYTVGVHAAEAFMLVREIK	not soluble
MGSDKIHHHHHHMSKNVLIVSASPRKGGNSDLLCDQFIQGVLESKNQVEKIFLKDKDINYCTGCGACYEKEANCSQTDDMGEILEKMIGADVIVLATPVYFYTMNAQMKTMIDRTCSRYTEICDKDFYFIVTAADENVADMERTIEGFRGFTSCLNGSKEKGIVYGVGAWNVGDIKGSKAMKQAYEMGKLA	not soluble
MGSDKIHHHHHHMSKPTQYGIIGCGMMGQEHLRNIALLPDARVAAIFEPNALMQAEAAKFAPDAQFVDSVEALLAIAELDCIMIASPNFRHVEQLETLASQNPLPVLVEKPLFTTLDDLNRIEEFAAHYPAPVWVAMEYRYMPPITAFLNEADTATGGIKMLTVREHRFPFLSKVDDWNRFNAQSGGTFVEKCCHFFDLMRLALKSEPVRIMASGGQDVNHLDERYDGSVPDILDNGYVIVEFESGARAMLELCMFAEGSKYQEDVSAVGPNGKVEAFVPGPGRFWPSHLGDAPVPKLVLSPRNPKGPEERDIPVDPTILDAGDHNGSTFYQHQKFLELVRGERSTPEVSLNDGKMAVLMGLAAQMSIAENRTVEISELL	not soluble
MGSDKIHHHHHHMSKVSLTIPPDFILGAAASAWQTEGWSGKKAGQDSYLDLWYKQDRQVWHNGYGPAKATDFFNRYREDVALMKLAGLTHYRTSINWSRFMLDYEKGIVDEEYAAYIDNLLDEMHRQGIEPMICLEHYELPACLLEKYQGWSSKQVVEWFVLYADTVFARYAGKVKRWFTFNEPIVVQTRVYLDALRYPYEQNTHTWMQWNHHKNLATAKVVQRFRQKGYDREGGSIGVILNPEVTYPRSRAAHDVKAAHLYDLFYNRVFLDPALKGEYPAELIALLAQHQVKWDYTEEELAIIRDNTVDEVGINLYYPHRVKAPSREWNKETPFHPAYYYEHFELPGRRMNTSRGWEINPKIIYDMAKRIEREYDNVPWFVAENGIGIENEARFKDDAGVIQDDYRIAFIAEHLYWTLKAKEEGANCRGYMLWAFTDNVSPMNAFKNRYGLIEIDLEQDRQRRPKKSAAWFRQLHDTRQLELTLDDEEK	not soluble
MGSDKIHHHHHHMSLAVVYSRASMGVQAPLVTIEVHLSNGKPAFTLVGLPEKTVTEAQGRVRSALLNAQFKYPAKRITVNLAPADLPKEGGRFDLPIALGILAASEQINAKKLQQFEFVAELALTGELRGVHGVIPAILAGQKSKRQLIVAQQNANEASLVSQHETFFARNLLEVVQFLNDDSSLPSSTTLCMQSAVDFSPQSNKDLTDIIGQQHAKRALMIAAAGQHNLLFLGPPGTGKTMLASRLTGLLPDMTDQEAIETASVTSLVQNELNFQNWKQRPFRAPHHSASSPALVGGGTIPKPGEISLAHNGVLFLDELPEFERRVLDALRQPLESGEIIISRANAKIQFPARFQLVAAMNPSPTGHYTGIHNRTSPQQVLRYLNRLSGPFLDRFDLSIEVPLLPQGALQNTEDRGETTAQVKEKVLRVREIQLARAGKVNAYLTGKEIERDCKLTEQDALFLENTLTRLGLSVRAYHRILKVARTIADLNGDSDIKQNHLAEALSYRAMDRLLRKLSDQ	not soluble
MGSDKIHHHHHHMSLLINLSFAPLQPTGWLTYSLNLLPHIKYLGVNVLSPREIPEVKVYQSPTNITTECGIKGHFQRLMWVQFKLPSFYKKLKSQLLFSPIPEVPLFSRCRSIVTIHDLIPLRFPQEFSAAQLFYCRNYLPAVIKQSEHIICNSLSTAHDIQNFLGVPEKKITITSLAIDTENFKFLDLPKKNYFLYYGRHNIYKNLNRIIAAFAALPNKDYELWLAGPNDARYTPTLQAQVEELGITHRVKFLDYVSYSELPVIINQAIALVFPSLWEGFGFPVLEALACGTPVITSNLSSLPEVAGDAAILINPYNTAEITDAMQNIANDVKLQSHLSTQGIARANQFSWERTGKATSEVLSRYL	not soluble
MGSDKIHHHHHHMSLRDKIEELKKIEKEIEQGGGPEKVEKQHRAGKLTAWERLELLLDPGTFVEIDKFVEHRNTYFGLDKVKLPRDGVITGVGEINGRKVAVFSQDFTVMGGSLGEMHAKKIVKLLDLALKMGIPVIGINDSGGARIQEGVDALAGYGEIFLRNTLASGVVPQITVIAGPCAGGAVYSPALTDFIVMVDQTARMFITGPNVIKAVTGEEISQEDLGGAMVHNQKSGNAHFLADNDEKAMSLVRTLLSYLPSNNAEEPPVEDPDTSLETPEDILDILPDNPNKGYDVRDVIKRVVDHGEFFEVQPYFAKNIVIGFARIQGKTVGIVANQPSVLAGVLDIDSSDKAARFIRFLDAFNIPILTFVDTPGYLPGVAQEHGGIIRHGAKLLYAYSEATVPKITVILRKAYGGAYIAMGSKHLGADMVLAWPSAEIAVMGPEGAANIIFKREIEASSNPEETRRKLIEEYKQQFANPYIAASRGYVDMVIDPRETRKYIMRALEVCETKVEYRPKKKHGNIPL	soluble
MGSDKIHHHHHHMSLSAQKCGRFFVSIQTEFEQERPTHKGGEIGIDMGVTRFATLSNGEFFEPLNAFKTYKGKLAKLQKQLKNKVKFSKNWQKLKEKIGKLHHKIANCRKDFLHKISTQISKNHAMIYVEDLQVANMSKSAKGTVEAHGKNVKQKSGLNRAILDQSWFEFRRQLDYKTQWLGGFLVAVPPRDTSRTCPCCGHIAKENRETQAHFECVECGYRENADVVGGINVLARGLAIVQA	not soluble
MGSDKIHHHHHHMSLVVGSARIDENGHISGGKPGDQTGNEVSTQAYYVHSKGWYCLRPKSITVANAIAEAMLQGCRNNNIGYCQGHRSNVIEQLRRVGKLSKISVKTEADCSSLVRACCIQAGFDPGNFNTASEASALKATGQFMEAIAVTSKTELFNGDVLVTKTKGHTVVVVSGNPRHGNTYYPKYEGTSGSIITALAAVGEKDTSKAHRAKIAAANGITNYAYTAAQNTKMVNLLKKGKLIKA	not soluble
MGSDKIHHHHHHMSNKKLIINADDFGYTPAVTQGIIEAHKRGVVTSTTALPTSPYFLEAMESARISAPTLAIGVHLTLTLNQAKPILPREMVPSLVDEAGYFWHQSIFEEKVNLEEVYNEWDAQIISFMKSGRRPDHIDSHHNVHGKNKKLLGVALALARKYQLPLRNASRSIETKDYLELYQDVRTPDEMLYQFYDKAISTETILQLLDMVVCSEGEVFEINCHPAFIDTILQNQSGYCMPRIREVEILTSQEVKEAIEERGILLANYESLAM	not soluble
MGSDKIHHHHHHMSPKTDIAEVNQESLYRIFTIPEAPDSTLGKIEKHLSENLMGFLGEHIVAREKPLQEIERDFDKSQIPEEPAFVSDHTEFLLDKLVAHSVHTASPRFIGHMTSALPYFLLPLAKLMVGLNQNLVKIETSKAFTPLERNVIGMMHHLVYQQDAPFYNRWMHSAQHSLGAFCSGGTIANMTALWVARNRLLQADGDFAGISADGLAAGLQHYGYSKLTVVVSERGHYSLSKAADVLGIGRRNLVSVATDSDNRIRIDELRKTCEKIAKEGGKVLALVGVAGTTETGHIDPLDEMATVAEEVDAHFHVDAAWGGATLLSEQHRPLLAGIERADSVTIDAHKQMYVPMGAGLVLFKNPALVKSIEYHAEYIIRQGSKDLGSHTMEGSRAGMAMMVFSAMHVIGRRGYELLINNSIDKARYFSKLISEQDDFEVITEPELCILTYRFVPIKVKTVLDKATPEQLARLTPHLNALTRYIQKRQRETGQSFVSRTKLTPAQYHHEPTVVFRVVLANPLTTNEMLQEVLCEQRKIAAKATSLRGALHTEMRELGMLI	not soluble
MGSDKIHHHHHHMSPLEMALLVHRGEFHLRELEPELPLEKFLKNADPKKTRKFLEKCGKEELERQKELIRKHNVKLVSFWEDDYPQHLREIRYPPAVLFVRGDAELLKEKCVGVVGTRRPTSYGVNVTKRFVKLLSEYFVIVSGMAFGIDSVAHKEALSSGGKTVAVLGTGVDVVYPRSNERLFHEIVKNGCVVSEYPMGTRARKHHFPARNRIIAGLSDAIIVTEAPIKSGALITVKFALESGRDVFAVPGDIDRKTSEGTNYLIKSGAYPLTDEEDLETHFGIRRIASPSLDDDKKKIYDLLRSSPKTVDELVEELGWSVSEVLRVISEMELMGMIWFDGGAYRLLG	not soluble
MGSDKIHHHHHHMSPQEYCQNKAAASGSSFYYSFLFLPKAKREAITALYAFCREVDDIADDVQDVNVAQTKLNWWRSEIINLFEGKPQHPVTMALQSPVRELKLKQQHFLEIINGMQMDLEQNRYRDFEELELYCYRVASVVGLLSASIFGYSNPQTLQYALDLGMAFQLTNITRDVGEDGRRGRIYLPLDEISRFGVSEQDILQGKASDNMRQLLEFQVERAERYYEKALAELPLEDRKQQRTGLIMASIYRTLLKEIKRDDIQVVLNARVSLTPIRKLWLAWLTWIRN	not soluble
MGSDKIHHHHHHMSQLEKAQAEYAGFIQEFQSAIISTISEQGIPNGSYAPFVIDDAKNIYIYVSGLAVHTKNIEANPLVNVLFVDDEAKTNQIFARRRLSFDCTATLIERESQKWNQVVDQFQERFGQIIEVLRGLADFRIFQLTPKEGRFVIGFGA	soluble
MGSDKIHHHHHHMSQPVWPNFYIIGAVKSGTTSLYAYLRQHPQVFLPAMKEPHFFTQPHPSPEQRHWIQYVGNVEQYQQLYRGAERFPRIGDASPSYLWCEEAPERIHAVQPDARIIVILRDPVQRAHAQYLMDFNEGVLDLPFVEALQRDWTRPDKGWGISQLYVELGRYTAQIMRYQQQFGAGQVHVCLLEDLKKNPLAVLEDIADFLEIDRGPLHDMDLETVHNVHRLPRGNWARQLASGHISRYIGEHLFPRTWGEFVWRNVFLREGRKPPMDAEARSFLQAIYTPEIERLEQLLGRPLPELRISWKFSEPAGQSLSTALPPKPSGNR	not soluble
MGSDKIHHHHHHMSQSKPLFPLNAWYAVAWDHEVKHALTPRKLCNLDVVLYRTTAGAVVALEDACWHRLVPLSMGKLRGDDVVCGYHGLVYNAQGRCVHMPSQETINPSACVRGFPVAEKHRYVWVWPGDPAQADVALIPDLHWSHDPAWAGDGRTIHAKCDYRLVLDNLMDLTHETFVHGSSIGQDEVAEAPFEVVHGDRTVTVSRWMHNIDPPPFWAGQIARHLNYHGKVDRWQIIHFEAPGTIAIDVGVAITGTGAPQGDRSQGVNGFVLNTITPETDTTCHYFWAFMRNYALHDQSLTTLTREGVTGVFGEDEAVLEAQQRAIEAHPDHAFYNLNVDAGGMWARRVIDRLIAREQRAGDLSLRMVG	not soluble
